Sequences and labels used below:
B1: recombinant β-subunit of human protein kinase CK2 (natural protein)
chain: not shown
B2: ΔF508 mutated recombinant murine NBD1 (spanning sequence 389−673) (domain or fragment, mouse, UniProt P26361 389-673, looked up)
chain: TTGIIMENVTAFWEEGFGELLEKVQQSNGDRKHSSDENNVSFSHLCLVGNPVLKNINLNIEKGEMLAITGSTGSGKTSLLMLILGELEASEGIIKHSGRVSFCSQFSWIMPGTIKENIIGVSYDEYRYKSVVKACQLQQDITKFAEQDNTVLGEGGVTLSGGQRARISLARAVYKDADLYLLDSPFGYLDVFTEEQVFESCVCKLMANKTRILVTSKMEHLRKADKILILHQGSSYFYGTFSELQSLRPDFSSKLMGYDTFDQFTEERRSSILTETLRRFSVDD
B3: wild-type human NBD1 (spanning sequence 389−673) (domain or fragment, UniProt P13569 389-673, looked up)
chain: TTEVVMENVTAFWEEGFGELFEKAKQNNNNRKTSNGDDSLFFSNFSLLGTPVLKDINFKIERGQLLAVAGSTGAGKTSLLMVIMGELEPSEGKIKHSGRISFCSQFSWIMPGTIKENIIFGVSYDEYRYRSVIKACQLEEDISKFAEKDNIVLGEGGITLSGGQRARISLARAVYKDADLYLLDSPFGYLDVLTEKEIFESCVCKLMANKTRILVTSKMEHLKKADKILILHEGSSYFYGTFSELQNLQPDFSSKLMGCDSFDQFSAERRNSILTETLHRFSLEG
B4: wild-type recombinant murine NBD1 (nucleotide binding domain 1 of CFTR, spanning sequence 389−673) (domain or fragment, mouse, UniProt P26361 389-673, looked up)
chain: TTGIIMENVTAFWEEGFGELLEKVQQSNGDRKHSSDENNVSFSHLCLVGNPVLKNINLNIEKGEMLAITGSTGSGKTSLLMLILGELEASEGIIKHSGRVSFCSQFSWIMPGTIKENIIFGVSYDEYRYKSVVKACQLQQDITKFAEQDNTVLGEGGVTLSGGQRARISLARAVYKDADLYLLDSPFGYLDVFTEEQVFESCVCKLMANKTRILVTSKMEHLRKADKILILHQGSSYFYGTFSELQSLRPDFSSKLMGYDTFDQFTEERRSSILTETLRRFSVDD

Holding throughout (assay): SPR
(In general: Surface plasmon resonance follows binding to a sensor surface in real time, without labels.)

Assay [1] has as its target T1, recombinant α-subunit of human protein kinase CK2 (human, UniProt P68400 1-391).
Assay [2] has as its target B2.
The target of assay [3] is B4.
Assay [4] deals with B3.
In assay [5] the target is T1, recombinant α-subunit of human protein …. This is another data set of the same source.
For assay [6] the target is unchanged. The source holds these as a separate data set.

Where two headings read alike, the source gives them in different places.

T1 sequence (P68400 whole entry): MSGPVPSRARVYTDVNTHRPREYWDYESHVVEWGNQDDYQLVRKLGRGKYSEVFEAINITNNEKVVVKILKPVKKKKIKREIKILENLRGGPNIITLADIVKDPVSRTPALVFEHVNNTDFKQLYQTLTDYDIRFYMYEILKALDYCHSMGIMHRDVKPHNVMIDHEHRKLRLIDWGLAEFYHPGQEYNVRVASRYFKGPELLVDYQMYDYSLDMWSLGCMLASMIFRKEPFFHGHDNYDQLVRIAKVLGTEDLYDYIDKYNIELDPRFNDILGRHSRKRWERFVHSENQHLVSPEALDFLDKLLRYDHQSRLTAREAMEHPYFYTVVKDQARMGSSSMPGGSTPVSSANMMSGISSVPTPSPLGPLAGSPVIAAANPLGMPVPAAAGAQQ

As for B1, the binding result in assay [1], in assay [2], in assay [3] and in assay [4] was “binds” each time.

Consider B2, for which, in assay [5], the dissociation constant (Kd) was found to be 91.2 nM, the koff is 8.77e-05 s⁻¹ and the kon amounted to 961 M⁻¹ s⁻¹.

Regarding B3, the binding result in assay [6] was “binds”.

Regarding IIGVSYDEYRYR (peptide, UniProt P13569 506-518, looked up) [CFTR peptide 506−518 ΔF], the binding result in assay [1] was “binds”.

Consider B4, for which, in assay [5], the Kd was 2470 nM, the koff came out at 0.000335 s⁻¹ and the kon was 135 M⁻¹ s⁻¹.

A word on the Kd: it is the constant that tells how readily two partners part at equilibrium. The koff is the first-order rate constant of dissociation. Broadly, the kon is the second-order rate constant of association.

The values are drawn from article PMC2774623 (Biochemistry, 2008).
